We go through four variants from article PMC3507621.

The chains are these.
B1: wild type recombinant N-terminal region of PTX3 (N_PTX3) [human] / mouse TSG-6 (tumor necrosis factor-induced protein 6) [mouse] (parent)
chain 1: WGFKNGIFHNSIWLEQAAGVYHREARAGRYKLTYAEAKAVCEFEGGRLATYKQLEAARKIGFHVCAAGWMAKGRVGYPIVKPGPNCGFGKTGIIDYGIRLNRSERWDAYCYNPHAKECGGVFTDPKRIFKSPGFPNEYDDNQVCYWHIRLKYGQRIHLSFLDFDLEHDPGCLADYVEIYDSYDDVHGFVGRYCGDELPEDIISTGNVMTLKFLSDASVTAGGFQIKYVTVDPASKSSQAKNTSTTGNKKFLPGRFSHL
chain 2: ENSDDYDLMYVNLDNEIDNGLHPTEDPTPCACGQEHSEWDKLFIMLENSQMRERMLLQATDDVLRGELQRLREELGRLAESLARPCAPGAPAEARLTSALDELLQATRDAGRRLARMEGAEAQRPEEAGRALAAVLEELRQTRADLHAVQGWATG
B2: wild type recombinant N-terminal region of PTX3 (N_PTX3) [human] / mouse TSG-6 (tumor necrosis factor-induced protein 6) [mouse] (parent)
chain 1: B1 chain 2
chain 2: B1 chain 1

Variants of B1 are the subject of experiment [1]. Kind of experiment: ELISA. The settings on record: with mouse TSG-6 (tumor necrosis factor-induced protein 6) [mouse], pH 7.4, PBS with Ca2+ and Mg2+, read off a plot.
Experiment [2] covers variants of B2. Kind of experiment: competition ELISA (bPTX3 detected with HRP-conjugated streptavidin). The settings on record: with mouse TSG-6 (tumor necrosis factor-induced protein 6) [mouse], wells coated with TSG-6, read off a plot.
[3] abbreviates: TSG-6 about 0.38 nM (est. from x axis), parent: 0.29.
Setting [4] is: TSG-6 about 1.6 nM (est. from x axis), parent: 0.91.
[5] abbreviates: TSG-6 about 6.2 nM (est. from x axis), parent: 1.7.
Where [6] appears, read: TSG-6 about 26 nM (est. from x axis), parent: 2.2.
[7] abbreviates: TSG-6 about 100 nM (est. from x axis), parent: 2.3.

In the case of chain 2 C30S C32S, the response in experiment [1] (setting [3]) was 0.14 O.D. (450nm); in experiment [1] (setting [4]) it was 0.5 O.D. (450nm); in experiment [1] (setting [5]) it was 1.1 O.D. (450nm); in experiment [1] (setting [6]) it was 1.9 O.D. (450nm); in experiment [1] (setting [7]), 2.2 O.D. (450nm).
For chain 2 C30S C32S C86S, the response in experiment [1] (setting [3]) was 0.31 O.D. (450nm); in experiment [1] (setting [4]), 0.91 O.D. (450nm); in experiment [1] (setting [5]), 1.7 O.D. (450nm); in experiment [1] (setting [6]) it was 2.2 O.D. (450nm); in experiment [1] (setting [7]) it was 2.2 O.D. (450nm).
Regarding chain 2 C86S, the response is 0.3 O.D. (450nm) in experiment [1] (setting [3]); 0.91 O.D. (450nm) in experiment [1] (setting [4]); 1.6 O.D. (450nm) in experiment [1] (setting [5]); 2.2 O.D. (450nm) in experiment [1] (setting [6]); 2.3 O.D. (450nm) in experiment [1] (setting [7]).
Regarding chain 1 C30S C32S C86S, the screen value in experiment [2] (competitor about 0.24 nM (est. from x axis), parent: 99) was 97%; in experiment [2] (competitor about 1.2 nM (est. from x axis), parent: 90), 93%; in experiment [2] (competitor about 12 nM (est. from x axis), parent: 82) it was 84%; in experiment [2] (competitor about 120 nM (est. from x axis), parent: 58), 64%; in experiment [2] (competitor about 1200 nM (est. from x axis), parent: 17), 29%.
